Assay results as given in US20200247886A1 (ZLIP, published 2020).

Legend:
[1] = molecular target: T1, biotin labelled polyhistidine tagged CD47 protein (Novoprotein, Cat#321) (human, UniProt Q08722 19-139, biotin labelled (site not stated)); test: IC50 (nM) as grade, Fab blocking biotinylated CD47 binding to SIRPα-CHO cells; legend ++: >10 nM and <65 nM
T1 construct: Bought protein; also called biotinylated CD47; biotinylated human CD47 protein; not shown: polyhistidine tag

[2] = molecular target: T2, human CD47 expressed on cells (CD47 expressing CHO cells, Jurkat, HL60, DLD1, Raji) (human, UniProt Q08722 19-292); test: EC50 (nM) as grade, flow cytometry, Fab on HL60 cells; legend +++: <1 nM
T2 construct: also called CHO-CD47; IAP

[3] = molecular target: T2, human CD47 expressed on cells (CD47 …); test: EC50 (nM) as grade, flow cytometry, Fab on DLD1 cells; legend +: >60 nM
His-tagged CD47 [4] = molecular target: T3, His-tagged CD47 (Homo sapiens (Human), UniProt Q08722 19-139, limits assumed); test: flow cytometry blocking assay: His-tagged CD47 with Fab on SIRPα-expressing CHO cells (SIRPα is the blocked ligand), anti-His-APC, frequency
T3 construct: not shown: His tag

His-tagged CD47 [5] = molecular target: T3, His-tagged CD47; test: flow cytometry blocking assay: His-tagged CD47 with Fab on SIRPα-expressing CHO cells (SIRPα is the blocked ligand), anti-His-APC, MFI
[6] = molecular target: T2, human CD47 expressed on cells (CD47 …); test: EC50 (nM) as grade, flow cytometry, Fab on DLD1 cells; legend ++: >5 nM and <60 nM
His-tagged CD47 [7] = molecular target: T3, His-tagged CD47; test: IC50 (nM) MFI as grade, blocking His-tagged CD47 binding to SIRPα-CHO cells; legend +++: <2 nM
His-tagged CD47 [8] = molecular target: T3, His-tagged CD47; test: IC50 (nM) Frequency as grade, blocking His-tagged CD47 binding to SIRPα-CHO cells; legend +: >2.7 nM
[9] = molecular target: T2, human CD47 expressed on cells (CD47 …); test: EC50 (nM) as grade, flow cytometry, Fab on DLD1 cells; legend +++: <5 nM
[10] = molecular target: T1, biotin labelled polyhistidine tagged …; test: IC50 (nM) as grade, Fab blocking biotinylated CD47 binding to SIRPα-CHO cells; legend +: >65 nM
[11] = molecular target: T2, human CD47 expressed on cells (CD47 …); test: IC50 as grade, SIRPα blocking on Raji cells; legend ++: >1 nM and <20 nM
[12] = molecular target: T2, human CD47 expressed on cells (CD47 …); test: IC50 as grade, SIRPα blocking on Raji cells; legend +: >20 nM
[13] = molecular target: T2, human CD47 expressed on cells (CD47 …); test: EC50 (nM) as grade, binding on CHO-CD47 cells; legend ++++: <0.05 nM
[14] = molecular target: T2, human CD47 expressed on cells (CD47 …); test: EC50 (nM) as grade, binding on Jurkat cells; legend ++++: <0.05 nM
[15] = molecular target: T2, human CD47 expressed on cells (CD47 …); test: flow cytometry on human red blood cells, donor 2, MFI; EC50 (nM) table beside the legend
[16] = molecular target: T4, CD47 protein (construct not stated; SPR antigen, CD47 coated ELISA plates) (Homo sapiens (Human), UniProt Q08722 19-139, limits assumed); test: SPR (Biacore T100), affinity (nM) as grade; legend +: >10 nM and <40 nM
T4 construct: also called the antigen

[17] = molecular target: T5, human CD47-Fc protein (Novoprotein, Cat#CG18) (human, UniProt Q08722 19-139); test: IC50 (nM) as grade, neutralizing ELISA, CD47-hFc on SIRPα coated plate; legend ++: >15 nM and <20 nM
T5 construct: Bought protein; also called CD47-hFc; hCD47-hFc fusion protein; not shown: human IgG Fc of the bought fusion protein

CHO/mCD47-GFP = molecular target: T6, CHO/mCD47-GFP (mouse, UniProt Q61735); test: flow cytometry on CHO cells expressing mouse CD47-GFP, binding percentage
T6 construct: on the cell surface; also called mouse CD47 expressed on CHO cells; CHO cell expressing mouse CD47
T6 sequence (receptor, looked up): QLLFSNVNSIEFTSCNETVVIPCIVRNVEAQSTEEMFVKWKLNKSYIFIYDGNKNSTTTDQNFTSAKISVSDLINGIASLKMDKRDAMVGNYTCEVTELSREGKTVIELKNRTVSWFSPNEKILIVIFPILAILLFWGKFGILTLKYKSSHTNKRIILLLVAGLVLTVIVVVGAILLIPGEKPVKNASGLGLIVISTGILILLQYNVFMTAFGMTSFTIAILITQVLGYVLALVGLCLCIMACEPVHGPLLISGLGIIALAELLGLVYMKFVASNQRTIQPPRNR

[18] = molecular target: T5, human CD47-Fc protein (Novoprotein, …); test: IC50 (nM) as grade, blocking of soluble CD47 binding to SIRPα-expressing CHO cells; legend ++: >1 nM and <10 nM
[19] = molecular target: T2, human CD47 expressed on cells (CD47 …); test: flow cytometry on CD47 expressing CHO cells, MFI (FL-4)
[20] = molecular target: T2, human CD47 expressed on cells (CD47 …); test: EC50 (nM) as grade, binding on Jurkat cells; legend ++: >1 nM and <10 nM
[21] = molecular target: T2, human CD47 expressed on cells (CD47 …); test: flow cytometry on DLD1 cells, IgG, frequency
[22] = molecular target: T1, biotin labelled polyhistidine tagged …; test: flow cytometry blocking assay: antibody mixed with biotinylated human CD47 protein; blocked ligand SIRPα on cells; binding percentage

B1: ABU11 (Fab) (Fab, V domains shown)
VH: EVQLQQPGAELVRPGSSVKLSCKASGYSFTTYWMHWVKQRPGQGLEWIGNINPSSGDSHYNEKFKSKATLTVDKSSSTAYLQLNSLTSEDSAVYYCARDYYGAYWGHGTLVTVSA
VL: DIQMTQSPASLSASVGETVTITCRASENVYSYLAWYQQKQGKSPQLLVYKANTLAEGVPSRFSGSGSGTQFSLKINSLQPEDFGTYYCQHHYGTPLTFGSGTKLEIK
notes: Phage-derived Fab: murine VL and VH fused to human CL and CH1
Q: For B1, which IC50 [1] is on record?
A: The IC50 was 10 to 65 nM.

Q: What about the EC50 [2] of the same binder?
A: Its EC50 is less than 1 nM.

Q: What about the EC50 [3] of the same binder?
A: Its EC50 is greater than 60 nM.

B2: ABU40 (Fab) (Fab, V domains shown)
VH: EVQLQQPGTELVKPGASVKLSCKASGYSFTTYWMHWVKQRPGQGLEWIGNINPSSGDSHYNEKFKSKATLTVDKSSSTAYMQLNSLTSEDSAVYYCARDYYGAYWGHGTLVTVSA
VL: DIQMTQSPASLSASVGETVTITCRASENIYSYLAWYQQKQGKSPQLLVYNAKTLAEGVPSRFSGSGSGTQFSLKINSLQPEDFGSYYCQHHYGTPLTFGAGTKLELK
notes: as for B1
Q: B2 was tested. Which “IC50 (read off the curve)” value (His-tagged CD47 [4]) did it give?
A: The value was roughly 3 nM.

Q: What about the “IC50 (read off the curve)” value (His-tagged CD47 [5]) of the same binder?
A: Its value is roughly 2 nM.

Q: And the EC50 [6]?
A: The EC50 was 5 to 60 nM.

Q: What about the IC50 [1] of the same binder?
A: Its IC50 is 10 to 65 nM.

Q: What about the EC50 [2] of the same binder?
A: The EC50 was less than 1 nM.

Q: What about the IC50 (His-tagged CD47 [7]) of the same binder?
A: Its IC50 is less than 2 nM.

Q: And the IC50 (His-tagged CD47 [8])?
A: The IC50 was greater than 2.7 nM.

B3: ABU20 (Fab) (Fab, V domains shown)
VH: RGKVQESGPGLVKPSQSLSLTCSVTGYSITSGYYWNWIRQFPGNKLEWMGYINYDGSNNYNPSLKNRISITRDTSKNQFFLKLNSVTTEDTATYYCARGYYYGSSYGYWYFDVWGTGTTVTVSS
VL: DAVVTQESALTTSPGETVTLTCRSSTGAVTTNNYANWVQEKPDHLFTGLIGGTNNRAPGVPARFSGSLIGDKAALTITGAQTEDEAIYFCALWYSNHLVFGGGTKLTVL
notes: as for B1
Q: With B3 as the binder, how does the IC50 [1] read?
A: Its IC50 is 10 to 65 nM.

Q: And the EC50 [2]?
A: Its EC50 is less than 1 nM.

Q: And the EC50 [3]?
A: The EC50 was greater than 60 nM.

B4: ABU16 (Fab) (Fab, V domains shown)
VH: RVQLQQSGAELVRPGTSVKVSCKASAYAFTNYLIEWVKKRPGQGLEWIGVINPGSGGTNYNEKFKGKATLTADKSSSTAYMQLSSLTSEDSAVYFCARGDGYGSLFAYWGQGTLVTVSA
VL: RHCFNQSPAIMSASPGEKVTMTCSASSSVSYMHWYQQKSGTSPKRWIYDTSNLASGVPVRFSGSGSGTSYSLTISRMEAEDAATYYCQQWSNYPFTFGSGTKLELK
notes: as for B1
Q: Which results are given for B4?
A: EC50 [9]: < 5 nM; EC50 [2]: < 1 nM; IC50 [10]: > 65 nM

B5: H-ABU 5 (antibody, V domains shown)
VH: QVQLVQSGAEVKKPGASVKVSCKASGYTFTDNYINWVRQAPGQRLEWMGWIYLGSGNTKYNEKFKGRVTITRDTSASTAYMELSSLRSEDTAVYYCARREERGFAVWGQGTLVTVSS
VL: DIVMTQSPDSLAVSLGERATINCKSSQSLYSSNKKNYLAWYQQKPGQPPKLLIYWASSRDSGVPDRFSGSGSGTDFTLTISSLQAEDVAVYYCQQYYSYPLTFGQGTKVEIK
Q: With B5 as the binder, how does the IC50 [11] read?
A: The IC50 was 1 to 20 nM.

B6: H-ABU 3 (antibody, V domains shown)
VH: QVQLVQSGAEVKKPGASVKVSCKASGYTFTDSYINWVRQAPGQRLEWMGWIYTGSGNTKYNEKFKGRVTITRDTSASTAYMELSSLRSEDTAVYYCARREERGFAYWGQGTLVTVSS
VL: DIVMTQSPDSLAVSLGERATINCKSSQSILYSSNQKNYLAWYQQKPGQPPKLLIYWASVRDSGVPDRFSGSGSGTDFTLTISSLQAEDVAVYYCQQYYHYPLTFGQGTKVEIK
Q: For B6, which IC50 [12] is on record?
A: The IC50 was greater than 20 nM.

B7: ABU3 (antibody, V domains shown)
VH: EVQLQQSGAELVKPGASVKLSCTASGFTIKDTYMHWVKQRPEQGLEWIGRIDPAKDNTKYDPKFQGKATITLDTSSNIAYLQLSSLTSEDTAVYFCARGHYGSSYVVYWGQGTLVTVSA
VL: NILMTQSPKSMSMSVGERVTLSCKASENVGTYVSWYQQKPDQSPKLLIYGASNRYTGVPDRFTGSGSATDFTLTISSVQAEDLADYHCGQSYSYPLTFGAGTKLELK
notes: Murine hybridoma monoclonal antibody
Q: How did the EC50 [13] turn out when B7 was run?
A: The EC50 was less than 0.05 nM.

Q: What about the EC50 [14] of the same binder?
A: The EC50 was less than 0.05 nM.

Q: And the EC50 [15]?
A: The EC50 was 1.47 nM.

Q: What about the “Affinity by SPR” value [16] of the same binder?
A: The value was 10 to 40 nM.

Q: What about the IC50 [17] of the same binder?
A: Its IC50 is 15 to 20 nM.

Q: Does B7 bind (CHO/mCD47-GFP)?
A: Result: no binding (tested: about 0.4 ug/ml)

Q: And the IC50 [18]?
A: The IC50 was 1 to 10 nM.

B8: Positive 2 (benchmark analogue antibody) (antibody, V domains shown)
VH: QVQLQQPGAELVKPGASVMMSCKASGYTFTNYNMHWVKQTPGQGLEWIGTIYPGNDDTSYNQKFKDKATLTADKSSSAAYMQLSSLTSEDSAVYYCARGGYRAMDYWGQTSVTVSS
VL: DVLMTQTPLSLPVSLGDQASISCRSSQSIVYSNGNTYLGWYLQKPGQSPKLLIYKVSNRFSGVPDRFSGSGSGTDFTLKISRVEAEDLGVYHCFQGSHVPYTFGGGTKVEIK
notes: also called Pos
Q: With B8 as the binder, how does the EC50 [13] read?
A: The EC50 was less than 0.05 nM.

Q: What about the “EC50 (read off the curve)” value [19] of the same binder?
A: Its value is roughly 2 nM.

Q: What about the EC50 [20] of the same binder?
A: The EC50 was 1 to 10 nM.

Q: And the “Affinity by SPR” value [16]?
A: The value was 10 to 40 nM.

Q: Does B8 bind (CHO/mCD47-GFP)?
A: Result: no binding (tested: about 0.4 ug/ml)

Q: What about the IC50 [18] of the same binder?
A: The IC50 was 1 to 10 nM.

Q: And the “EC50 (read off the curve)” value [21]?
A: The value was roughly 2 nM.

Q: What about the “IC50 (read off the curve)” value [22] of the same binder?
A: The value was roughly 8 nM.
